Source: patent publication US20120076728A1 (University of California, published 2012)
No end group written: not given here.

Key:
[1] = target: carcinoembryonic antigen (CEA) expressed by LS174T human colon carcinoma tumors (human (LS174T human colon carcinoma cells)) (UniProt P06731); assay: cell-based or functional assay
[2] = target: T1, carcinoembryonic antigen (CEA), form not stated (UniProt P06731 35-685, limits assumed); assay: not stated; given as a property of the peptide
T1 sequence (looked up): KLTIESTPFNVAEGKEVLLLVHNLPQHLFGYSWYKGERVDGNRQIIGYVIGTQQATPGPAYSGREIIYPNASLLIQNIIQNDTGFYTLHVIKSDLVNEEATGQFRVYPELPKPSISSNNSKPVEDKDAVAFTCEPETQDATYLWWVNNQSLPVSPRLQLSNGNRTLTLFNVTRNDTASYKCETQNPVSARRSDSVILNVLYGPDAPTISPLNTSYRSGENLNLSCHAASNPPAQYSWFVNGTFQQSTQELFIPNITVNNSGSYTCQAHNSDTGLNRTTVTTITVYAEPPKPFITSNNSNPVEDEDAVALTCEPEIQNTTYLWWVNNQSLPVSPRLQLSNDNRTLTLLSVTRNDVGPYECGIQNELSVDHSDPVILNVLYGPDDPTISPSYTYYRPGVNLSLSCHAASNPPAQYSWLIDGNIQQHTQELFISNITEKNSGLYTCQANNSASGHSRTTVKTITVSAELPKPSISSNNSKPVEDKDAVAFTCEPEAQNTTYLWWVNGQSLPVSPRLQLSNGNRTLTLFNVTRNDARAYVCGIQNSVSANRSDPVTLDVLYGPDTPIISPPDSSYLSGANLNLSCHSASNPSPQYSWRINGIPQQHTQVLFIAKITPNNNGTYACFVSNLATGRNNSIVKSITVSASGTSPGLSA

anti-CEA T84.66 diabody (Db)
CEA positive-to-negative tumor uptake ratio at 51 h [1]: 13

B1: CEA specific, cyclic peptide SDWVCEFIKSQWFCNVLASG (peptide)
peptide: SDWVCEFIKSQWFCNVLASG-HyNic
modifications: also: cyclic, bond type and places not given here
notes: also called anti-CEA peptide; CEA specific peptide
Kd [2]: 160 nM
